Reference: article PMC6146392 (Metallomics : integrated biometal science, 2018)
Read-outs that look alike come from different tables or passages of the source.

How the values were obtained:
Test in all cases: ITC
[1] = target: S.c. Grx3 (residues 36-285, Trx-like and Grx-like domains) (S. cerevisiae)
[2] = target: S.c. Grx3 (residues 36-285, Trx-like and Grx-like domains) (S. cerevisiae); remark: listed apart in the source
[3] = target: T1, H.s. GLRX5 lacking the first 31 amino acids (Δ1-31) (human, UniProt Q86SX6 32-157)
T1 sequence (looked up): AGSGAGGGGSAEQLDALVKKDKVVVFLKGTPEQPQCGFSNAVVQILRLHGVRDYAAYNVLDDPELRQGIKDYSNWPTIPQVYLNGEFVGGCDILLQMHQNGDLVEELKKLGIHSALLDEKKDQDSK

B1: human BOLA3 (residues 25-107, lacking the mitochondrial targeting sequence) (natural protein, UniProt Q53S33 25-107, looked up)
chain: MFATQTEGELRVTQILKEKFPRATAIKVTDISGGCGAMYEIKIESEEFKEKRTVQQHQMVNQALKEEIKEMHGLRIFTSVPKR
B1 gave a Kd [1] of 6.7 µM, a stoichiometry N [1] of 0.94 and a Ka [2] of 150000 M⁻¹. The dH [2] was -0.787 kcal/mol, the stoichiometry N [2] was 0.98 and the Ka [3] was 120000 M⁻¹. For the same binder, the dH [3] was -0.518 ± 0.0342 kcal/mol and the “stoichiometry N” value [3] was 1.02 ± 0.05.
